PMC6546747, “Wwp2 maintains cartilage homeostasis through regulation of Adamts5” (Nature Communications, 2019)

Biological target: T1, Wwp2 protein purified from transfected HEK293T cells (in vitro pull-down) (mouse, UniProt Q9DBH0 1-870)
T1 construct: Wwp2; plasmids were built from full-length cDNA NM_025830.3; source: HEK293T, transfected, purified (tagged protein magnetic purification kit)
Assay: pull-down; in vitro pull-down using His-tag (Dynabeads His-Tag Isolation and Pulldown); proteins purified from transfected HEK293T cells
Conditions: both partners purified

T1 sequence (Q9DBH0 whole entry): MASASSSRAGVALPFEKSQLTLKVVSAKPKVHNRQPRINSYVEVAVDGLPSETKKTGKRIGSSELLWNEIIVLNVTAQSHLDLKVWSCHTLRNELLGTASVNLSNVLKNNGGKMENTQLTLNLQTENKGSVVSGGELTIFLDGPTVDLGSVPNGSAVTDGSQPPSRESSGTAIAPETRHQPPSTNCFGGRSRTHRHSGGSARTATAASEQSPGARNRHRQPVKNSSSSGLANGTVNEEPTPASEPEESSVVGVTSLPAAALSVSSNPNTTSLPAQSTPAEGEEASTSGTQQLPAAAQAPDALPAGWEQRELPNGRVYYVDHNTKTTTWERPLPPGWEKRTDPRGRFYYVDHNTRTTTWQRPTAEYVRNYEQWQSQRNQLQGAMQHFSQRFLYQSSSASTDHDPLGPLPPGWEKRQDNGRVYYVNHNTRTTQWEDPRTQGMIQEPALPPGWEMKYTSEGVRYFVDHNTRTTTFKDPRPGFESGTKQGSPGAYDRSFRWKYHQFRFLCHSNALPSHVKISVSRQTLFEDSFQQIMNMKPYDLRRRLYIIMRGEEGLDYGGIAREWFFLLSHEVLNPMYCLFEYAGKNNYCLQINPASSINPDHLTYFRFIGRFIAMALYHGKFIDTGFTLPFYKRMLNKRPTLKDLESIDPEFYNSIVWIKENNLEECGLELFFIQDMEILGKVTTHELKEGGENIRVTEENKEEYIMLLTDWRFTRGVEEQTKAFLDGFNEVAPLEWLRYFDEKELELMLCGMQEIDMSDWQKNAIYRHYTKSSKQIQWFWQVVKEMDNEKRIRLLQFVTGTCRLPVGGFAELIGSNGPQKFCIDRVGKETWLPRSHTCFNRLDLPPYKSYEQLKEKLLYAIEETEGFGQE

binding result: binds
B1: Runx2 protein purified from transfected HEK293T cells (in vitro pull-down) (natural protein, mouse, UniProt Q08775-5 1-528, looked up)
chain: MASNSLFSAVTPCQQSFFWDPSTSRRFSPPSSSLQPGKMSDVSPVVAAQQQQQQQQQQQQQQQQQQQQQQQQQQQQQEAAAAAAAAAAAAAAAAAAVPRLRPPHDNRTMVEIIADHPAELVRTDSPNFLCSVLPSHWRCNKTLPVAFKVVALGEVPDGTVVTVMAGNDENYSAELRNASAVMKNQVARFNDLRFVGRSGRGKSFTLTITVFTNPPQVATYHRAIKVTVDGPREPRRHRQKLDDSKPSLFSDRLSDLGRIPHPSMRVGVPPQNPRPSLNSAPSPFNPQGQSQITDPRQAQSSPPWSYDQSYPSYLSQMTSPSIHSTTPLSSTRGTGLPAITDVPRRISDDDTATSDFCLWPSSLSKKSQAGASELGPFSDPRQFPSISSLTESRFSNPRMHYPATFTYTPPVTSGMSLGMSATTHYHTYLPPPYPGSSQSQSGPFQTSSTPYLYYGTSSASYQFPMVPGGDRSPSRMVPPCTTTSNGSTLLNPNLPNQNDGVDADGSHSSSPTVLNSSGRMDESVWRPY
notes: Runx2; plasmids were built from full-length cDNA NM_001146038.2; source: HEK293T, transfected, purified (tagged protein magnetic purification kit)
